Reference: US20180118806A1 (MIT, published 2018)
Several values for one entry are separate records, joined by “and”; a condition that tells them apart may be missing. Equal entries are not always repeated.

Tests used:
[1] = target: T1, Rantes (CCL5) (UniProt P13501 24-91); assay: MST, run 1, technical repeat; dye-labelled variant at 5 nM, Rantes titrated
T1 construct: In the yeast 2-hybrid screen the ligand construct is not described
T1 sequence (looked up): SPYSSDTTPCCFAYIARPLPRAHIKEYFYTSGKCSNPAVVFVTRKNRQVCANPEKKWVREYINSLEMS
Procedure: (§1) Each run of assay systematically measures 16 capillaries with identical concentration of a non-full length CCR5^QTY variant, but different concentrations of Rantes (Prospecbio http://www.prospecbio.com/Rantes/) with 2 duplicate measurements (Technical repeat 1 and 2).
(§2) Briefly, serial dilution of the target molecule Rantes was prepared in buffer to match the final buffer conditions in the reaction mix. The highest concentration of target was 6.0 μM, and the lowest 184.0 pM. About 5 μl of each dilution step were mixed with 5 μl of the fluorescent molecule—a partial water-soluble […] variant of CCR5 (e.g., CCR5-SZ218a). The final reaction mixture, which was filled in capillaries, contained a respective amount of target molecule (max. conc. 3.0 μM, min conc. 92.0 pM) and constant 5 nM fluorescent molecule.
(§3) The samples were analyzed on a Monolith NT.115 Pico at 25° C., with 12% LED power and 80% Laser power. No sticking of the fluorescent interaction partner to the capillary walls was indicated in the capillary scan.

[2] = target: T1, Rantes (CCL5); assay: MST, run 2, rounded value of the two technical repeats (FIG. 6)
Procedure: as §1, §2, §3

[3] = target: T1, Rantes (CCL5); assay: MST, run 3, LED power 15%, technical repeat
Procedure: as §1, §2

[4] = target: T1, Rantes (CCL5); assay: MST, run 2, technical repeat; dye-labelled variant at 5 nM, Rantes titrated
Procedure: as §1, §2, §3

[5] = target: T1, Rantes (CCL5); assay: MST, run 1, rounded value of the two technical repeats
Procedure: as §1, §2, §3

[6] = target: T1, Rantes (CCL5); assay: MST (MicroScale Thermophoresis), labelled CCR5QTY variant constant, Rantes titrated (axis 0.01-10000 nM); left panel, fits of Tech. 1 and Tech. 2
Procedure: as §1, §2, §3

[7] = target: T1, Rantes (CCL5); assay: MST, run 3, technical repeat; run 3, first technical repeat
Procedure: as §1, §2, §3

[8] = target: T1, Rantes (CCL5); assay: MST, run 2, technical repeat; run 2, first technical repeat
Procedure: as §1, §2, §3

[9] = target: T1, Rantes (CCL5); assay: MST, run 2, technical repeat; run 2, second technical repeat
Procedure: as §1, §2, §3

[10] = target: T1, Rantes (CCL5); assay: MST (MicroScale Thermophoresis), labelled CCR5QTY variant constant, Rantes titrated (axis 0.01-10000 nM); right panel, fits of Tech. 1 and Tech. 2
Procedure: as §1, §2, §3

[11] = target: T1, Rantes (CCL5); assay: MST, run 3, technical repeat; run 3, second technical repeat
Procedure: as §1, §2, §3

[12] = target: T1, Rantes (CCL5); assay: MST, run 1, technical repeat; dye-labelled variant at 5 nM, Rantes titrated (FIG. 7); run 1, second technical repeat
Procedure: as §1, §2, §3

[13] = target: T1, Rantes (CCL5); assay: MST, run 1, technical repeat; dye-labelled variant at 5 nM, Rantes titrated (FIG. 7); run 1, first technical repeat
Procedure: as §1, §2, §3

[14] = target: T1, Rantes (CCL5); assay: MST (FIG. 5)
Procedure: as §1, §2, §3

[15] = target: T1, Rantes (CCL5); assay: fluorescent MST (FIG. 5)
Procedure: as §1, §2, §3

B1: SZ218a = CCR5QTY(218a) (receptor)
chain: MDYQVSSPIYDINYYTSEPCQKINVKQIAARQQPPQYSQTYTFGFTGNMQTTQTQINCKRLKSMTDIYLQNQAISDQFFQQTTPFWAHYAAAQWDFGNTMCQQQTGQYFTGYYSGTYYTTQQLNTFQEFFGLNNCSSSNRLDQAMQTTETQGMTHCCINPTTYAYVGEKFRNYLLVFFQKHIAKRFCKCCSIFQQEAPERASSVYTRSTGEQEISVGL
modifications: labelled with the dye DY647P1 in the MST assay (site not stated)
notes: Dye-labelled in MST; fusion partner in yeast 2-hybrid not described; also called 5NA-43; CCR5_SZ218a DY647P1
Kd [1]: 74.5 nM and 76.2 nM
Kd [2]: ~80 nM
Kd [3]: 86.9 nM and 94.6 nM
Kd [4]: 80.2 nM and 83.2 nM
Kd [5]: ~75 nM

B2: SZ190b = CCR5QTY(190b) (receptor)
chain: MDYQVSSPIYDINYYTSEPCQKINVKQIAARLQPPQYSQTFTFGFTGNMQTTQTQINCKRLKSMTDIYLQNQAISDQFFQQTTPYWAPYNTVQQQNTFQEFFGLNNCSSSNRLDQAMQVTETQGMTHCCTNPTIYAFVGEKFRNYLLVFFQKHIAKRFCKCCSIFQQEAPERASSVYTRSTGEQEISVGL
modifications: labelled with the dye DY647P1 in the MST assay (site not stated)
notes: Partial QTY variant of CCR5, 190 aa; Dye-labelled in MST; in the yeast 2-hybrid screen the fusion partner is not described; also called 5NA-17: Contig1; CCR5_SZ190b DY647P1
Kd [6]: ~46 nM
Kd [7]: 32 nM
Kd [8]: 27.4 nM
Kd [9]: 56.5 nM
Kd [10]: ~48 nM
Kd [11]: 54.9 nM
Kd [12]: 51.8 nM
Kd [13]: 46.5 nM

B3: SZ352a = CCR5QTY(352a) (receptor)
chain: MDYQVSSPIYDINYYTSEPCQKINVKQIAARQQPPQYSQTFTYGFTGNMQTTQTQINCKRLKSMTDIYLQNQAISDQYYQQTTPYWAHYAAAQWDFGNTMCQQQTGQYFTGYYSGTYYTTQQTTDRYLAVVHAVFALKARTTTYGTTTSTTTWTTATYASQPGTTYTRSQKEGLHYTCSSHFPYSQYQFWKNFQTLKITIQGQVQPQQTMVTCYSGTQKTLLRCRNEKKRHRAVRQTFTTMTTYYQYWAPYNTTQQLNTFQEFFGLNNCSSSNRLDQAMQVTETQGMTHCCTNPTIYAYVGEKFRNYLLVFFQKHIAKRFCKCCSIFQQEAPERASSVYTRSTGEQEISVGL
modifications: labelled with a dye in the MST assay (dye and site not stated for this variant)
notes: Full-length (352 aa) QTY variant of CCR5, used as control in MST; also called CC15-22; full-length (352 aa) CCR5^QTY variant
Kd [14]: 28 to 32 nM
Kd [6]: ~28 nM
Kd [10]: ~32 nM
Kd [15]: ~30 nM
